Biological target: T1, wild-type yeast Ugp1
T1 chain: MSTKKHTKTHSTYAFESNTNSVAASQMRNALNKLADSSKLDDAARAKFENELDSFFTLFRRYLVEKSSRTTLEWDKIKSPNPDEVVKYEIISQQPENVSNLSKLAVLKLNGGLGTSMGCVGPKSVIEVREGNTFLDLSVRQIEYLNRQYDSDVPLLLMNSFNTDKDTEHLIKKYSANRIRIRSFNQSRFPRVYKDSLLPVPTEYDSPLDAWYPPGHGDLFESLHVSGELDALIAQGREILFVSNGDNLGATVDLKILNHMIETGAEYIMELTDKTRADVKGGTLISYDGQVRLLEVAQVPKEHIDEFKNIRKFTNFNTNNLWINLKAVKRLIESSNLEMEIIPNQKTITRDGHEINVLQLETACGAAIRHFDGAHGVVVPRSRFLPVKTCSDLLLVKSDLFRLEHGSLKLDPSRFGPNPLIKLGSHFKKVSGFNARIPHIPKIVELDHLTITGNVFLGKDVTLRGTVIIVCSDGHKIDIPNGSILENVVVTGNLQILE

B1: human PASK (protein)
chain: MEDGGLTAFEEDQRCLSQSLPLPVSAEGPAAQTTAEPSRSFSSAHRHLSRRNGLSRLCQSRTALSEDRWSSYCLSSLAAQNICTSKLHCPAAPEHTDPSEPRGSVSCCSLLRGLSSGWSSPLLPAPVCNPNKAIFTVDAKTTEILVANDKACGLLGYSSQDLIGQKLTQFFLRSDSDVVEALSEEHMEADGHAAVVFGTVVDIISRSGEKIPVSVWMKRMRQERRLCCVVVLEPVERVSTWVAFQSDGTVTSCDSLFAHLHGYVSGEDVAGQHITDLIPSVQLPPSGQHIPKNLKIQRSVGRARDGTTFPLSLKLKSQPSSEEATTGEAAPVSGYRASVWVFCTISGLITLLPDGTIHGINHSFALTLFGYGKTELLGKNITFLIPGFYSYMDLAYNSSLQLPDLASCLDVGNESGCGERTLDPWQGQDPAEGGQDPRINVVLAGGHVVPRDEIRKLMESQDIFTGTQTELIAGGQLLSCLSPQPAPGVDNVPEGSLPVHGEQALPKDQQITALGREEPVAIESPGQDLLGESRSEPVDVKPFASCEDSEAPVPAEDGGSDAGMCGLCQKAQLERMGVSGPSGSDLWAGAAVAKPQAKGQLAGGSLLMHCPCYGSEWGLWWRSQDLAPSPSGMAGLSFGTPTLDEPWLGVENDREELQTCLIKEQLSQLSLAGALDVPHAELVPTECQAVTAPVSSCDLGGRDLCGGCTGSSSACYALATDLPGGLEAVEAQEVDVNSFSWNLKELFFSDQTDQTSSNCSCATSELRETPSSLAVGSDPDVGSLQEQGSCVLDDRELLLLTGTCVDLGQGRRFRESCVGHDPTEPLEVCLVSSEHYAASDRESPGHVPSTLDAGPEDTCPSAEEPRLNVQVTSTPVIVMRGAAGLQREIQEGAYSGSCYHRDGLRLSIQFEVRRVELQGPTPLFCCWLVKDLLHSQRDSAARTRLFLASLPGSTHSTAAELTGPSLVEVLRARPWFEEPPKAVELEGLAACEGEYSQKYSTMSPLGSGAFGFVWTAVDKEKNKEVVVKFIKKEKVLEDCWIEDPKLGKVTLEIAILSRVEHANIIKVLDIFENQGFFQLVMEKHGSGLDLFAFIDRHPRLDEPLASYIFRQLVSAVGYLRLKDIIHRDIKDENIVIAEDFTIKLIDFGSAAYLERGKLFYTFCGTIEYCAPEVLMGNPYRGPELEMWSLGVTLYTLVFEENPFCELEETVEAAIHPPYLVSKELMSLVSGLLQPVPERRTTLEKLVTDPWVTQPVNLADYTWEEVFRVNKPESGVLSAASLEMGNRSLSDVAQAQELCGGPVPGEAPNGQGCLHPGDPRLLTS
  Ugp1 phosphorylation (Western blot with phospho-specific Ugp1 antibody): transfected with human PASK and wild-type yeast Ugp1 (to promote phosphorylation) (lane 1) ... the phospho-Ugp1 band in lane 1
